Laboratory results reported in patent US20180155451A1 (published 2018).

Target: T1, FcγRIa (human, UniProt P12314 16-292)
T1 construct: extracellular domain; also called FcgRI; CD64
Test: SPR; vs GpH7-B3/GpL16-k0=100

T1 sequence (P12314 16-292): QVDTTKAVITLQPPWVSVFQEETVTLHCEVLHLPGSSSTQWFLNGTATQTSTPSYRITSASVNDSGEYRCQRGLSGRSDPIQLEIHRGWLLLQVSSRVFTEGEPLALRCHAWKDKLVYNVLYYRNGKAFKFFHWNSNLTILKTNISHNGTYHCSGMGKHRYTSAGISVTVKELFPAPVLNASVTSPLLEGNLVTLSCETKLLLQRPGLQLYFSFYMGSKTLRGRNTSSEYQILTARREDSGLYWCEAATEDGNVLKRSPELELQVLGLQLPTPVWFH

Row | Binder | Ho/Con_1a
1 | GpH7-B3 variant E269_19Q/GpL16-k0 (antibody, human IgG1, kappa, homodimerized; also called Ho Ab E269_19Q) heavy: not shown light: DIVMTQSPLSLPVTPGEPASISCQASESLVHSNRNTYLHWYLQKPGQSPQLLIYKVSNRFSGVPDRFSGSGSGTDFTLKISRVEAEDVGVYYCSQNTHVPPTFGQGTKVEIERTVAAPSVFIFPPSDEQLKSGTASVVCLLNNFYPREAKVQWKVDNALQSGNSQESVTEQDSKDSTYSLSSTLTLSKADYEKHKVYACEVTHQGLSSPVTKSFNRGEC | 99.6 % of control
2 | GpH7-B3 variant E269_20W/GpL16-k0 (antibody, human IgG1, kappa, homodimerized; also called Ho Ab E269_20W) heavy: not shown light: DIVMTQSPLSLPVTPGEPASISCQASESLVHSNRNTYLHWYLQKPGQSPQLLIYKVSNRFSGVPDRFSGSGSGTDFTLKISRVEAEDVGVYYCSQNTHVPPTFGQGTKVEIERTVAAPSVFIFPPSDEQLKSGTASVVCLLNNFYPREAKVQWKVDNALQSGNSQESVTEQDSKDSTYSLSSTLTLSKADYEKHKVYACEVTHQGLSSPVTKSFNRGEC | 98.9 % of control
3 | GpH7-B3 variant E333_01G/GpL16-k0 (antibody, human IgG1, kappa, homodimerized; also called Ho Ab E333_01G) heavy: not shown light: DIVMTQSPLSLPVTPGEPASISCQASESLVHSNRNTYLHWYLQKPGQSPQLLIYKVSNRFSGVPDRFSGSGSGTDFTLKISRVEAEDVGVYYCSQNTHVPPTFGQGTKVEIERTVAAPSVFIFPPSDEQLKSGTASVVCLLNNFYPREAKVQWKVDNALQSGNSQESVTEQDSKDSTYSLSSTLTLSKADYEKHKVYACEVTHQGLSSPVTKSFNRGEC | 100 % of control
4 | GpH7-B3 variant E333_02A/GpL16-k0 (antibody, human IgG1, kappa, homodimerized; also called Ho Ab E333_02A) heavy: not shown light: DIVMTQSPLSLPVTPGEPASISCQASESLVHSNRNTYLHWYLQKPGQSPQLLIYKVSNRFSGVPDRFSGSGSGTDFTLKISRVEAEDVGVYYCSQNTHVPPTFGQGTKVEIERTVAAPSVFIFPPSDEQLKSGTASVVCLLNNFYPREAKVQWKVDNALQSGNSQESVTEQDSKDSTYSLSSTLTLSKADYEKHKVYACEVTHQGLSSPVTKSFNRGEC | 96.2 % of control
5 | GpH7-B3 variant E333_03V/GpL16-k0 (antibody, human IgG1, kappa, homodimerized; also called Ho Ab E333_03V) heavy: not shown light: DIVMTQSPLSLPVTPGEPASISCQASESLVHSNRNTYLHWYLQKPGQSPQLLIYKVSNRFSGVPDRFSGSGSGTDFTLKISRVEAEDVGVYYCSQNTHVPPTFGQGTKVEIERTVAAPSVFIFPPSDEQLKSGTASVVCLLNNFYPREAKVQWKVDNALQSGNSQESVTEQDSKDSTYSLSSTLTLSKADYEKHKVYACEVTHQGLSSPVTKSFNRGEC | 98.4 % of control
6 | GpH7-B3 variant E333_04F/GpL16-k0 (antibody, human IgG1, kappa, homodimerized; also called Ho Ab E333_04F) heavy: not shown light: DIVMTQSPLSLPVTPGEPASISCQASESLVHSNRNTYLHWYLQKPGQSPQLLIYKVSNRFSGVPDRFSGSGSGTDFTLKISRVEAEDVGVYYCSQNTHVPPTFGQGTKVEIERTVAAPSVFIFPPSDEQLKSGTASVVCLLNNFYPREAKVQWKVDNALQSGNSQESVTEQDSKDSTYSLSSTLTLSKADYEKHKVYACEVTHQGLSSPVTKSFNRGEC | 98.4 % of control
7 | GpH7-B3 variant E333_05P/GpL16-k0 (antibody, human IgG1, kappa, homodimerized; also called Ho Ab E333_05P) heavy: not shown light: DIVMTQSPLSLPVTPGEPASISCQASESLVHSNRNTYLHWYLQKPGQSPQLLIYKVSNRFSGVPDRFSGSGSGTDFTLKISRVEAEDVGVYYCSQNTHVPPTFGQGTKVEIERTVAAPSVFIFPPSDEQLKSGTASVVCLLNNFYPREAKVQWKVDNALQSGNSQESVTEQDSKDSTYSLSSTLTLSKADYEKHKVYACEVTHQGLSSPVTKSFNRGEC | 99.2 % of control
8 | GpH7-B3 variant E333_06M/GpL16-k0 (antibody, human IgG1, kappa, homodimerized; also called Ho Ab E333_06M) heavy: not shown light: DIVMTQSPLSLPVTPGEPASISCQASESLVHSNRNTYLHWYLQKPGQSPQLLIYKVSNRFSGVPDRFSGSGSGTDFTLKISRVEAEDVGVYYCSQNTHVPPTFGQGTKVEIERTVAAPSVFIFPPSDEQLKSGTASVVCLLNNFYPREAKVQWKVDNALQSGNSQESVTEQDSKDSTYSLSSTLTLSKADYEKHKVYACEVTHQGLSSPVTKSFNRGEC | 99.5 % of control
9 | GpH7-B3 variant E333_07I/GpL16-k0 (antibody, human IgG1, kappa, homodimerized; also called Ho Ab E333_07I) heavy: not shown light: DIVMTQSPLSLPVTPGEPASISCQASESLVHSNRNTYLHWYLQKPGQSPQLLIYKVSNRFSGVPDRFSGSGSGTDFTLKISRVEAEDVGVYYCSQNTHVPPTFGQGTKVEIERTVAAPSVFIFPPSDEQLKSGTASVVCLLNNFYPREAKVQWKVDNALQSGNSQESVTEQDSKDSTYSLSSTLTLSKADYEKHKVYACEVTHQGLSSPVTKSFNRGEC | 99.9 % of control
10 | GpH7-B3 variant E333_08L/GpL16-k0 (antibody, human IgG1, kappa, homodimerized; also called Ho Ab E333_08L) heavy: not shown light: DIVMTQSPLSLPVTPGEPASISCQASESLVHSNRNTYLHWYLQKPGQSPQLLIYKVSNRFSGVPDRFSGSGSGTDFTLKISRVEAEDVGVYYCSQNTHVPPTFGQGTKVEIERTVAAPSVFIFPPSDEQLKSGTASVVCLLNNFYPREAKVQWKVDNALQSGNSQESVTEQDSKDSTYSLSSTLTLSKADYEKHKVYACEVTHQGLSSPVTKSFNRGEC | 99 % of control
11 | GpH7-B3 variant E333_09D/GpL16-k0 (antibody, human IgG1, kappa, homodimerized; also called Ho Ab E333_09D) heavy: not shown light: DIVMTQSPLSLPVTPGEPASISCQASESLVHSNRNTYLHWYLQKPGQSPQLLIYKVSNRFSGVPDRFSGSGSGTDFTLKISRVEAEDVGVYYCSQNTHVPPTFGQGTKVEIERTVAAPSVFIFPPSDEQLKSGTASVVCLLNNFYPREAKVQWKVDNALQSGNSQESVTEQDSKDSTYSLSSTLTLSKADYEKHKVYACEVTHQGLSSPVTKSFNRGEC | 103 % of control
12 | GpH7-B3 variant E333_11K/GpL16-k0 (antibody, human IgG1, kappa, homodimerized; also called Ho Ab E333_11K) heavy: not shown light: DIVMTQSPLSLPVTPGEPASISCQASESLVHSNRNTYLHWYLQKPGQSPQLLIYKVSNRFSGVPDRFSGSGSGTDFTLKISRVEAEDVGVYYCSQNTHVPPTFGQGTKVEIERTVAAPSVFIFPPSDEQLKSGTASVVCLLNNFYPREAKVQWKVDNALQSGNSQESVTEQDSKDSTYSLSSTLTLSKADYEKHKVYACEVTHQGLSSPVTKSFNRGEC | 95.8 % of control
13 | GpH7-B3 variant E333_12R/GpL16-k0 (antibody, human IgG1, kappa, homodimerized; also called Ho Ab E333_12R) heavy: not shown light: DIVMTQSPLSLPVTPGEPASISCQASESLVHSNRNTYLHWYLQKPGQSPQLLIYKVSNRFSGVPDRFSGSGSGTDFTLKISRVEAEDVGVYYCSQNTHVPPTFGQGTKVEIERTVAAPSVFIFPPSDEQLKSGTASVVCLLNNFYPREAKVQWKVDNALQSGNSQESVTEQDSKDSTYSLSSTLTLSKADYEKHKVYACEVTHQGLSSPVTKSFNRGEC | 94.2 % of control
14 | GpH7-B3 variant E333_13S/GpL16-k0 (antibody, human IgG1, kappa, homodimerized; also called Ho Ab E333_13S) heavy: not shown light: DIVMTQSPLSLPVTPGEPASISCQASESLVHSNRNTYLHWYLQKPGQSPQLLIYKVSNRFSGVPDRFSGSGSGTDFTLKISRVEAEDVGVYYCSQNTHVPPTFGQGTKVEIERTVAAPSVFIFPPSDEQLKSGTASVVCLLNNFYPREAKVQWKVDNALQSGNSQESVTEQDSKDSTYSLSSTLTLSKADYEKHKVYACEVTHQGLSSPVTKSFNRGEC | 101 % of control
15 | GpH7-B3 variant E333_14T/GpL16-k0 (antibody, human IgG1, kappa, homodimerized; also called Ho Ab E333_14T) heavy: not shown light: DIVMTQSPLSLPVTPGEPASISCQASESLVHSNRNTYLHWYLQKPGQSPQLLIYKVSNRFSGVPDRFSGSGSGTDFTLKISRVEAEDVGVYYCSQNTHVPPTFGQGTKVEIERTVAAPSVFIFPPSDEQLKSGTASVVCLLNNFYPREAKVQWKVDNALQSGNSQESVTEQDSKDSTYSLSSTLTLSKADYEKHKVYACEVTHQGLSSPVTKSFNRGEC | 98.7 % of control
16 | GpH7-B3 variant E333_15Y/GpL16-k0 (antibody, human IgG1, kappa, homodimerized; also called Ho Ab E333_15Y) heavy: not shown light: DIVMTQSPLSLPVTPGEPASISCQASESLVHSNRNTYLHWYLQKPGQSPQLLIYKVSNRFSGVPDRFSGSGSGTDFTLKISRVEAEDVGVYYCSQNTHVPPTFGQGTKVEIERTVAAPSVFIFPPSDEQLKSGTASVVCLLNNFYPREAKVQWKVDNALQSGNSQESVTEQDSKDSTYSLSSTLTLSKADYEKHKVYACEVTHQGLSSPVTKSFNRGEC | 100 % of control
17 | GpH7-B3 variant E333_16H/GpL16-k0 (antibody, human IgG1, kappa, homodimerized; also called Ho Ab E333_16H) heavy: not shown light: DIVMTQSPLSLPVTPGEPASISCQASESLVHSNRNTYLHWYLQKPGQSPQLLIYKVSNRFSGVPDRFSGSGSGTDFTLKISRVEAEDVGVYYCSQNTHVPPTFGQGTKVEIERTVAAPSVFIFPPSDEQLKSGTASVVCLLNNFYPREAKVQWKVDNALQSGNSQESVTEQDSKDSTYSLSSTLTLSKADYEKHKVYACEVTHQGLSSPVTKSFNRGEC | 99.1 % of control
18 | GpH7-B3 variant G236_02A/GpL16-k0 (antibody, human IgG1, kappa, homodimerized; also called Ho Ab G236_02A) heavy: not shown light: DIVMTQSPLSLPVTPGEPASISCQASESLVHSNRNTYLHWYLQKPGQSPQLLIYKVSNRFSGVPDRFSGSGSGTDFTLKISRVEAEDVGVYYCSQNTHVPPTFGQGTKVEIERTVAAPSVFIFPPSDEQLKSGTASVVCLLNNFYPREAKVQWKVDNALQSGNSQESVTEQDSKDSTYSLSSTLTLSKADYEKHKVYACEVTHQGLSSPVTKSFNRGEC | 92.4 % of control
19 | GpH7-B3 variant G236_20W/GpL16-k0 (antibody, human IgG1, kappa, homodimerized; also called Ho Ab G236_20W; GpH7-B3-03-20W/GpL16-k0) heavy: not shown light: DIVMTQSPLSLPVTPGEPASISCQASESLVHSNRNTYLHWYLQKPGQSPQLLIYKVSNRFSGVPDRFSGSGSGTDFTLKISRVEAEDVGVYYCSQNTHVPPTFGQGTKVEIERTVAAPSVFIFPPSDEQLKSGTASVVCLLNNFYPREAKVQWKVDNALQSGNSQESVTEQDSKDSTYSLSSTLTLSKADYEKHKVYACEVTHQGLSSPVTKSFNRGEC | 104 % of control
20 | GpH7-B3 variant H268_02A/GpL16-k0 (antibody, human IgG1, kappa, homodimerized; also called Ho Ab H268_02A) heavy: not shown light: DIVMTQSPLSLPVTPGEPASISCQASESLVHSNRNTYLHWYLQKPGQSPQLLIYKVSNRFSGVPDRFSGSGSGTDFTLKISRVEAEDVGVYYCSQNTHVPPTFGQGTKVEIERTVAAPSVFIFPPSDEQLKSGTASVVCLLNNFYPREAKVQWKVDNALQSGNSQESVTEQDSKDSTYSLSSTLTLSKADYEKHKVYACEVTHQGLSSPVTKSFNRGEC | 106 % of control
21 | GpH7-B3 variant H268_05P/GpL16-k0 (antibody, human IgG1, kappa, homodimerized; also called Ho Ab H268_05P) heavy: not shown light: DIVMTQSPLSLPVTPGEPASISCQASESLVHSNRNTYLHWYLQKPGQSPQLLIYKVSNRFSGVPDRFSGSGSGTDFTLKISRVEAEDVGVYYCSQNTHVPPTFGQGTKVEIERTVAAPSVFIFPPSDEQLKSGTASVVCLLNNFYPREAKVQWKVDNALQSGNSQESVTEQDSKDSTYSLSSTLTLSKADYEKHKVYACEVTHQGLSSPVTKSFNRGEC | 108 % of control
22 | GpH7-B3 variant H268_07I/GpL16-k0 (antibody, human IgG1, kappa, homodimerized; also called Ho Ab H268_07I) heavy: not shown light: DIVMTQSPLSLPVTPGEPASISCQASESLVHSNRNTYLHWYLQKPGQSPQLLIYKVSNRFSGVPDRFSGSGSGTDFTLKISRVEAEDVGVYYCSQNTHVPPTFGQGTKVEIERTVAAPSVFIFPPSDEQLKSGTASVVCLLNNFYPREAKVQWKVDNALQSGNSQESVTEQDSKDSTYSLSSTLTLSKADYEKHKVYACEVTHQGLSSPVTKSFNRGEC | 106 % of control
23 | GpH7-B3 variant H268_08L/GpL16-k0 (antibody, human IgG1, kappa, homodimerized; also called Ho Ab H268_08L) heavy: not shown light: DIVMTQSPLSLPVTPGEPASISCQASESLVHSNRNTYLHWYLQKPGQSPQLLIYKVSNRFSGVPDRFSGSGSGTDFTLKISRVEAEDVGVYYCSQNTHVPPTFGQGTKVEIERTVAAPSVFIFPPSDEQLKSGTASVVCLLNNFYPREAKVQWKVDNALQSGNSQESVTEQDSKDSTYSLSSTLTLSKADYEKHKVYACEVTHQGLSSPVTKSFNRGEC | 105 % of control
